Patent US5763245A, “Method of controlling insects” (priority 1996, dated 1998)

Experiments:
tobacco hornworm = test: Lepidopteran larvae bioassay on treated artificial diet, six days; type: in vivo; details: stage lv
Method: (§1) Lepidopteran larvae were tested on artificial diet treated with the indicated amount of the A19249 3-hydroxysteroid oxidase (cholesterol oxidase) for six days.

beet armyworm = test: as above; type: in vivo; details: stage lv, dose 100 μg/mL
Method: as §1

fall army worm = test: as above; type: in vivo; details: stage lv, dose 30 μg/mL
Method: as §1

European cornborer = test: as above; type: in vivo; details: stage lv
Method: as §1

tobacco budworm = test: as above; type: in vivo
Method: as §1

corn earworm = test: as above; type: in vivo; details: stage lv
Method: as §1

pink bollworm = test: as above; type: in vivo; details: stage lv
Method: as §1

black cutworm = test: as above; type: in vivo; details: stage lv, dose 100 μg/mL
Method: as §1

tobacco budworm larvae = test: Extended test with tobacco budworm larvae; type: in vivo; details: 100 ppm in artificial diet
Method: An extended test was performed with tobacco budworm larvae to test the effect of the stunting noted in the six-day test. Tobacco budworm eggs were added to artificial diet (as described above) containing either buffer or 100 ppm A19249 3-hydroxysteroid oxidase (cholesterol oxidase). After seven days, some mortality as compared to the controls was noted. Surviving larvae were moved to fresh diet (control or treated, as appropriate). Percent mortality (corrected for control mortality) is reported for the 7 day and 10 day periods in Table 2A. The corrected number of larvae was […]

boll weevil larvae = test: Boll weevil larvae bioassay (diet incorporation); type: in vivo
Method: Assays for activity against boll weevil larvae are carried out by incorporating the test sample into a agar liquid diet similar to that for southern corn rootworm [Marrone et al., 1985]. The test sample is substituted for the 20% water component. Neonate larvae are allowed to feed on the diet and mortality and growth stunting are evaluated.
Protein concentrations were determined spectrophotometrically with BCA protein reagent [Smith et al., 1985].

[1] = 3-Hydroxysteroid oxidase assay (spectrophotometric); type: biochemical
Method: The identity of the enzyme was confirmed by testing its ability to oxidize a 3-hydroxysteroid, specifically cholesterol. The enzyme is added to a reagent mixture comprising horseradish peroxidase (20 U/mL), phenol (14 mM), 4-amino antipyrine (0.82 mM), Triton® X-100 (0.05%) and phosphate buffer (100 mM, pH 7). The sterol in isopropanol is then added and the absorbance at 500 nm monitored. One unit of activity is defined as the amount of enzyme required to oxidize 1 &mole of sterol per minute at 20% C.
The activity levels of the enzymes are reported in Table 12 for 3-hydroxysteroids representative of various classes of 3-hydroxysteroids.

B1: A19249: 3-hydroxysteroid oxidase produced by streptomycete A19249 collected in Madagascar; 52.5 kDa, SEQ ID NO: 8 (protein)
chain: VNAHQPLSRRRMLGLAALGAAALTGQTTITAAPRAAAATAPGGSGGTFVPAVVIGTGYGAAVSALRLGEAGVSTLMLEMGQLWNQPGPDGNVFCGMLKPDKRSSWFKTRTEAPLGSFLWLDLANRDIDPYAGVLDRVNFDQMSVYVGRGVGGGSLVNGGMAVTPRRSYFQEVLPQVDADEMYGTYFPRANSGLRVNNIDKDWFEQTEWYTFARVARLQAENAGLKTTFVPNVYDWDYMRGEADGTNPKSALAAEVIYGNNHGKVSLDKSYLAAALGTGKVTVETLHQVKTIRQQNDGTYLLTVEQKDPDGKLLGTKEISCRHLFLGAGSLGSIELLLRARETGTLPGLSSEIGGGWGPNGNIMTARANHVWNPTGSKQSSIPALGIDDWDNPDNPVFAEIAPMPAGLETWVSLYLAITKNPERGTFVYDAAKDRADLRWTRDQNAPAVAAAKSLFDRVNKANTTIYRYDLFGKQIKAFADDFCYHPLGGCVLGKATDNYGRVSGYKNLYVTDGSLIPGSIGVNPFVTITALAERNVERVIKEDIAGS
- Stunting (tobacco hornworm; dose 30 μg/mL): 0
- Stunting (tobacco hornworm; dose 100 μg/mL): 30%
- Stunting (beet armyworm): 76%
- Stunting (fall army worm): 0
- Stunting (European cornborer; dose 50 μg/mL): 0
- Stunting (European cornborer; dose 100 μg/mL): 46%
- Stunting (tobacco budworm; stage egg/lv, dose 30 μg/mL): 0
- Stunting (tobacco budworm; stage lv, dose 100 μg/mL): 86%
- Stunting (corn earworm; dose 50 μg/mL): 0
- Stunting (corn earworm; dose 100 μg/mL): 35%
- Stunting (pink bollworm; dose 50 μg/mL): 0
- Stunting (pink bollworm; dose 100 μg/mL): 30%
- Stunting (black cutworm): 68%
- Percent Mortality (corrected for control mortality) (tobacco budworm larvae; interval 7 days): 20%
- Percent Mortality (corrected for control mortality) (tobacco budworm larvae; interval 10 days): 61%
- Percent Mortality (corrected for control mortality) (tobacco budworm larvae; interval 14 days): 80%
- BollWeevil % Mortality (boll weevil larvae; 5 μg/mL, 175 mUnits per mL): 10%
- Survivor Stunting (boll weevil larvae; 5 μg/mL, 175 mUnits per mL): Slight
- BollWeevil % Mortality (boll weevil larvae; 10 μg/mL, 350 mUnits per mL): 10%
- Survivor Stunting (boll weevil larvae; 10 μg/mL, 350 mUnits per mL): Moderate
- BollWeevil % Mortality (boll weevil larvae; 15 μg/mL, 525 mUnits per mL): 5%
- Survivor Stunting (boll weevil larvae; 15 μg/mL, 525 mUnits per mL): Moderate
- BollWeevil % Mortality (boll weevil larvae; 20 μg/mL, 700 mUnits per mL): 15%
- Survivor Stunting (boll weevil larvae; 20 μg/mL, 700 mUnits per mL): Severe
- BollWeevil % Mortality (boll weevil larvae; 40 μg/mL, 1400 mUnits per mL): 70%
- Survivor Stunting (boll weevil larvae; 40 μg/mL, 1400 mUnits per mL): Severe
- BollWeevil % Mortality (boll weevil larvae; 60 μg/mL, 2100 mUnits per mL): 60%
- Survivor Stunting (boll weevil larvae; 60 μg/mL, 2100 mUnits per mL): Severe
- Relative Rate ([1]; sterol: 20-OH ecdysone): < 1
- Relative Rate ([1]; sterol: campesterol*): 65
- Relative Rate ([1]; sterol: cholesterol): 100
- Relative Rate ([1]; sterol: dehydrocholesterol): 13
- Relative Rate ([1]; sterol: dihydrocholesterol): 56
- Relative Rate ([1]; sterol: ecdysone): < 1
- Relative Rate ([1]; sterol: fucosterol): 22
- Relative Rate ([1]; sterol: lanosterol): < 1
- Relative Rate ([1]; sterol: lathosterol): 28
- Relative Rate ([1]; sterol: sitosterol): 88
- Relative Rate ([1]; sterol: stigmasterol): 22
